Results on one protein are retold here after publication PMC8303963, “Action of Multiple Rice β-Glucosidases on Abscisic Acid Glucose Ester” (International Journal of Molecular Sciences, 2021).

What is called Km is the substrate concentration at which the rate is half of its maximum. Broadly, the kcat is the number of substrate molecules converted per active site and unit of time at saturation. Usually kcat/Km stands for the second-order rate constant that governs catalysis at low substrate concentration.

Substrate in the data set: CC1=CC(=O)CC(C)(C)[C@@]1(O)/C=C/C(C)=C\C(=O)O[C@@H]1O[C@H](CO)[C@@H](O)[C@H](O)[C@H]1O
Put plainly: glucose release by peroxidase/glucose oxidase assay, Michaelis-Menten fit. The class given is biochemical, Oryza sativa. The note with it: 50 mM sodium acetate pH 5, 30 °C. From the text:
glucose release by peroxidase/glucose oxidase assay, Michaelis-Menten fit on Os4BGlu12

B1: Os4BGlu12 (Oryza sativa Japonica Group) (protein)
chain: AYNGAGEPPVSRRSFPKGFIFGTASSSYQYEGGAAEGGRGPSIWDTFTHQHPEKIADRSNGDVASDSYHLYKEDVRLMKDMGMDAYRFSISWTRILPNGSLRGGVNKEGIKYYNNLINELLSKGVQPFITLFHWDSPQALEDKYNGFLSPNIINDFKDYAEICFKEFGDRVKNWITFNEPWTFCSNGYATGLFAPGRCSPWEKGNCSVGDSGREPYTACHHQLLAHAETVRLYKAKYQALQKGKIGITLVSHWFVPFSRSKSNDDAAKRAIDFMFGWFMDPLIRGDYPLSMRGLVGNRLPQFTKEQSKLVKGAFDFIGLNYYTANYADNLPPSNGLNNSYTTDSRANLTGVRNGIPIGPQAASPWLYVYPQGFRDLLLYVKENYGNPTVYITENGVDEFNNKTLPLQEALKDDARIEYYHKHLLSLLSAIRDGANVKGYFAWSLLDNFEWSNGYTVRFGINFVDYNDGRKRYPKNSAHWFKKFLLK
notes: recombinant from E. coli, IMAC purified; N-terminal thioredoxin and His6 tags cut off with enterokinase
For the protein B1, the Km stood at 10.9 ± 0.9 mM, the turnover number (kcat) turned out to be 7.5 ± 0.0002 s⁻¹ and the kcat/Km was 689 M⁻¹ s⁻¹.
